Consider 4 molecules from patent US20140087995A1 (published 2014).

Numbered stars: 1 amine (or outer) side, 2 acyl side, 3 side chain; on linkers, the order of the positions; unused ones are H or OH. Bridge positions count the residues as written; N and C are the ends. Side chains are listed from the residue outwards. Ends that are not written are not given here. * marks the point of attachment. C20 diacid = O=C(O)CCCCCCCCCCCCCCCCCCC(=O)*; C18 diacid = O=C(O)CCCCCCCCCCCCCCCCC(=O)*; C16 diacid = O=C(O)CCCCCCCCCCCCCCC(=O)*; γGlu = O=C(O)[C@H](CCC(=O)[*:2])N[*:1]; C14 diacid = O=C(O)CCCCCCCCCCCCC(=O)*

The target in experiment [1] is T1, human calcitonin receptor (human, UniProt P30988 25-474).
T1 construct: whole, on cells; Membranes of BHK cells stably transfected with the human calcitonin receptor (Assay VII); also called hCTR; hCT
T1 sequence (looked up): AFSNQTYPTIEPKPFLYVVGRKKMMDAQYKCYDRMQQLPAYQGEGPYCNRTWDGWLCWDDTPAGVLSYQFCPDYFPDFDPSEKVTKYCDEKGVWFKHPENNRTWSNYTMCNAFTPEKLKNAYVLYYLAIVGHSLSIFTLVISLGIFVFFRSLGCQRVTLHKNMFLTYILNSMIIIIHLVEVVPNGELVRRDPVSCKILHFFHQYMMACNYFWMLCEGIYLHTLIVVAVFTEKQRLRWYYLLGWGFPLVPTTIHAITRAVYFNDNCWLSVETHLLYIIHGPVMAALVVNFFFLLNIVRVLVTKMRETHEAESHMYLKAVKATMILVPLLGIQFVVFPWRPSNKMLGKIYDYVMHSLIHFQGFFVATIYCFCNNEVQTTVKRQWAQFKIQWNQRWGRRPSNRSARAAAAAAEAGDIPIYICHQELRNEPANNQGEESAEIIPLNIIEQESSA
Nature of the experiment: ratio of IC50 at hCTR over IC50 at hAmylin-R (SPA competition assays). The protocol:
The resulting pellet was resuspended, homogenized and centrifuged (20.000 rpm, 15 min) in a buffer containing 20 mM Na-HEPES and 0.1 mM EDTA (pH 7.4, buffer 2). The resulting pellet was resuspended in buffer 2 and protein concentration was measured (BCA protein Assay, Pierce). The homogenate was kept cold during the whole procedure. The membranes were kept at −80° C. until use. The assay was performed in a 384 well Optiplate (PerkinElmer) in a total volume of 40 ul. Membranes were mixed with SPA beads. Final concentration of membranes 35 ng/μL final and SPA beads was 0.05 mg/well. Test-compounds were dissolved in DMSO and further diluted in assay buffer (50 mM Hepes, pH 7.4, 1 mM CaCl2, 5 mM MgCl₂, 0.1% OA and 0.02% Tween20). […] The final mixture was incubated with shaking at 400 rpm for 120 min at 25° C. prior to centrifugation (1500 rpm, 10 min). Samples were analyzed on TopCounter™ (Packard). The IC₅₀ was calculated using (one site binding competition analysis) GraphPad Prism5 as a measure of receptor affinity.
Membranes were prepared in the following way; the cells were rinsed with PBS and incubated with Versene for approximately 5 min before harvesting. The cells were flushed with PBS and the cell-suspension was centrifuged for 5 min at 1000 rpm. Cells were homogenized (Ultrathurrax) in a buffer containing 20 mM Na-HEPES and 10 mM EDTA (pH 7.4) and centrifuged at 20.000 rpm for 15 min. The resulting pellet was resuspended, homogenized and centrifuged (20.000 rpm, 15 min) in a buffer containing 20 mM Na-HEPES and 0.1 mM EDTA (pH 7.4, buffer 2). The resulting pellet was resuspended in buffer 2 and protein concentration was measured (BCA protein Assay, Pierce). The homogenate was kept cold during the whole procedure. The membranes were kept at −80° C. until use. Assay was performed in a 384 well Optiplate (PerkinElmer) in a total volume of 40 ul. Membranes were mixed with SPA beads.

Experiment [2] addresses T1, human calcitonin receptor. As to the kind of experiment: SPA competition against 125I-calcitonin, membranes of BHK cells with human calcitonin receptor (Assay VII). The protocol: Membranes were prepared in the following way; the cells were rinsed with PBS and incubated with Versene for approximately 5 min before harvesting. The cells were flushed with PBS and the cell-suspension was centrifuged for 5 min at 1000 rpm. Cells were homogenized (Ultrathurrax) in a buffer containing 20 mM Na-HEPES and 10 mM EDTA (pH 7.4) and centrifuged at 20.000 rpm for 15 min. The resulting pellet was resuspended, homogenized and centrifuged (20.000 rpm, 15 min) in a buffer containing 20 mM Na-HEPES and 0.1 mM EDTA (pH 7.4, buffer 2). The resulting pellet was resuspended in buffer 2 and protein concentration was measured (BCA protein Assay, Pierce). The homogenate was kept cold during the whole procedure. The membranes were kept at −80° C. until use. Assay was performed in a 384 well Optiplate (PerkinElmer) in a total volume of 40 ul. Membranes were mixed with SPA beads. Final concentration of membranes 35 ng/μL final and Final concentration of SPA beads was 0.05 mg/well. Test-compounds were dissolved in DMSO and further diluted in assay buffer (50 mM Hepes, pH 7.4, 1 mM CaCl2, 5 mM MgCl₂, 0.1% OA and 0.02% Tween20). […] The final mixture was incubated for 120 min with shaking at 400 rpm at 25° C. prior to centrifugation (1500 rpm, 10 min). Samples were analyzed on TopCounter™ (Packard). The […] was calculated using (one site binding competition analysis) GraphPad Prism5 as a measure of receptor affinity.

B1: N^ε1-[(4S)-4-carboxy-4-[[(4S)-4-carboxy-4-(19-carboxynonadecanoylamino)butanoyl]amino]butanoyl]-[Glu14,Arg17,Pro21,Pro27,Pro34,Glu35]-h-amylin (peptide)
peptide: K([γGlu-γGlu-C20 diacid])CNTATCATQRLAEFLRHSSPNFGAIPSSTNVGPETY-NH2
modifications: disulfide 2-7; N-terminus assumed
SMILES: CC[C@H](C)[C@H](NC(=O)[C@H](C)NC(=O)CNC(=O)[C@H](Cc1ccccc1)NC(=O)[C@H](CC(N)=O)NC(=O)[C@@H]1CCCN1C(=O)[C@H](CO)NC(=O)[C@H](CO)NC(=O)[C@H](Cc1c[nH]cn1)NC(=O)[C@H](CCCNC(=N)N)NC(=O)[C@H](CC(C)C)NC(=O)[C@H](Cc1ccccc1)NC(=O)[C@H](CCC(=O)O)NC(=O)[C@H](C)NC(=O)[C@H](CC(C)C)NC(=O)[C@H](CCCNC(=N)N)NC(=O)[C@H](CCC(N)=O)NC(=O)[C@@H](NC(=O)[C@H](C)NC(=O)[C@@H]1CSSC[C@H](NC(=O)[C@@H](N)CCCCNC(=O)CC[C@H](NC(=O)CC[C@H](NC(=O)CCCCCCCCCCCCCCCCCCC(=O)O)C(=O)O)C(=O)O)C(=O)N[C@@H](CC(N)=O)C(=O)N[C@@H]([C@@H](C)O)C(=O)N[C@@H](C)C(=O)N[C@@H]([C@@H](C)O)C(=O)N1)[C@@H](C)O)C(=O)N1CCC[C@H]1C(=O)N[C@@H](CO)C(=O)N[C@@H](CO)C(=O)N[C@H](C(=O)N[C@@H](CC(N)=O)C(=O)N[C@H](C(=O)NCC(=O)N1CCC[C@H]1C(=O)N[C@@H](CCC(=O)O)C(=O)N[C@H](C(=O)N[C@@H](Cc1ccc(O)cc1)C(N)=O)[C@@H](C)O)C(C)C)[C@@H](C)O
On to B1, for which the “Ratio hCT/hAmylin binding” value in experiment [1] amounted to 17.6. For the same molecule, the IC50 (commonly the midpoint of a concentration-inhibition curve) in experiment [2] amounted to 2.13 nM.

B2: N^ε1-[(4S)-4-carboxy-4-(15-carboxypentadecanoylamino)butanoyl]-[Arg17,Pro21,Pro27,His34]-h-amylin (peptide)
peptide: K([γGlu-C16 diacid])CNTATCATQRLANFLRHSSPNFGAIPSSTNVGHNTY-NH2
modifications: disulfide 2-7; N-terminus assumed
SMILES: CC[C@H](C)[C@H](NC(=O)[C@H](C)NC(=O)CNC(=O)[C@H](Cc1ccccc1)NC(=O)[C@H](CC(N)=O)NC(=O)[C@@H]1CCCN1C(=O)[C@H](CO)NC(=O)[C@H](CO)NC(=O)[C@H](Cc1c[nH]cn1)NC(=O)[C@H](CCCNC(=N)N)NC(=O)[C@H](CC(C)C)NC(=O)[C@H](Cc1ccccc1)NC(=O)[C@H](CC(N)=O)NC(=O)[C@H](C)NC(=O)[C@H](CC(C)C)NC(=O)[C@H](CCCNC(=N)N)NC(=O)[C@H](CCC(N)=O)NC(=O)[C@@H](NC(=O)[C@H](C)NC(=O)[C@@H]1CSSC[C@H](NC(=O)[C@@H](N)CCCCNC(=O)CC[C@H](NC(=O)CCCCCCCCCCCCCCC(=O)O)C(=O)O)C(=O)N[C@@H](CC(N)=O)C(=O)N[C@@H]([C@@H](C)O)C(=O)N[C@@H](C)C(=O)N[C@@H]([C@@H](C)O)C(=O)N1)[C@@H](C)O)C(=O)N1CCC[C@H]1C(=O)N[C@@H](CO)C(=O)N[C@@H](CO)C(=O)N[C@H](C(=O)N[C@@H](CC(N)=O)C(=O)N[C@H](C(=O)NCC(=O)N[C@@H](Cc1c[nH]cn1)C(=O)N[C@@H](CC(N)=O)C(=O)N[C@H](C(=O)N[C@@H](Cc1ccc(O)cc1)C(N)=O)[C@@H](C)O)C(C)C)[C@@H](C)O
On to B2, for which, in experiment [1], the “Ratio hCT/hAmylin binding” value worked out at 18.5. The IC50 in experiment [2] worked out at 10.8 nM.

B3: N^ε1-[(4S)-4-carboxy-4-(13-carboxytridecanoylamino)butanoyl]-[Arg17,Pro21,Pro27,His34]-h-amylin (peptide)
peptide: K([γGlu-C14 diacid])CNTATCATQRLANFLRHSSPNFGAIPSSTNVGHNTY-NH2
modifications: disulfide 2-7; N-terminus assumed
SMILES: CC[C@H](C)[C@H](NC(=O)[C@H](C)NC(=O)CNC(=O)[C@H](Cc1ccccc1)NC(=O)[C@H](CC(N)=O)NC(=O)[C@@H]1CCCN1C(=O)[C@H](CO)NC(=O)[C@H](CO)NC(=O)[C@H](Cc1c[nH]cn1)NC(=O)[C@H](CCCNC(=N)N)NC(=O)[C@H](CC(C)C)NC(=O)[C@H](Cc1ccccc1)NC(=O)[C@H](CC(N)=O)NC(=O)[C@H](C)NC(=O)[C@H](CC(C)C)NC(=O)[C@H](CCCNC(=N)N)NC(=O)[C@H](CCC(N)=O)NC(=O)[C@@H](NC(=O)[C@H](C)NC(=O)[C@@H]1CSSC[C@H](NC(=O)[C@@H](N)CCCCNC(=O)CC[C@H](NC(=O)CCCCCCCCCCCCC(=O)O)C(=O)O)C(=O)N[C@@H](CC(N)=O)C(=O)N[C@@H]([C@@H](C)O)C(=O)N[C@@H](C)C(=O)N[C@@H]([C@@H](C)O)C(=O)N1)[C@@H](C)O)C(=O)N1CCC[C@H]1C(=O)N[C@@H](CO)C(=O)N[C@@H](CO)C(=O)N[C@H](C(=O)N[C@@H](CC(N)=O)C(=O)N[C@H](C(=O)NCC(=O)N[C@@H](Cc1c[nH]cn1)C(=O)N[C@@H](CC(N)=O)C(=O)N[C@H](C(=O)N[C@@H](Cc1ccc(O)cc1)C(N)=O)[C@@H](C)O)C(C)C)[C@@H](C)O
As to B3, the “Ratio hCT/hAmylin binding” value in experiment [1] was 23.5. Further, the IC50 in experiment [2] amounted to 24.3 nM.

B4: N^ε1-[(4S)-4-carboxy-4-(17-carboxyheptadecanoylamino)butanoyl]-[Arg17,Pro21,Pro27,His34]-h-amylin (peptide)
peptide: K([γGlu-C18 diacid])CNTATCATQRLANFLRHSSPNFGAIPSSTNVGHNTY-NH2
modifications: disulfide 2-7; N-terminus assumed
SMILES: CC[C@H](C)[C@H](NC(=O)[C@H](C)NC(=O)CNC(=O)[C@H](Cc1ccccc1)NC(=O)[C@H](CC(N)=O)NC(=O)[C@@H]1CCCN1C(=O)[C@H](CO)NC(=O)[C@H](CO)NC(=O)[C@H](Cc1c[nH]cn1)NC(=O)[C@H](CCCNC(=N)N)NC(=O)[C@H](CC(C)C)NC(=O)[C@H](Cc1ccccc1)NC(=O)[C@H](CC(N)=O)NC(=O)[C@H](C)NC(=O)[C@H](CC(C)C)NC(=O)[C@H](CCCNC(=N)N)NC(=O)[C@H](CCC(N)=O)NC(=O)[C@@H](NC(=O)[C@H](C)NC(=O)[C@@H]1CSSC[C@H](NC(=O)[C@@H](N)CCCCNC(=O)CC[C@H](NC(=O)CCCCCCCCCCCCCCCCC(=O)O)C(=O)O)C(=O)N[C@@H](CC(N)=O)C(=O)N[C@@H]([C@@H](C)O)C(=O)N[C@@H](C)C(=O)N[C@@H]([C@@H](C)O)C(=O)N1)[C@@H](C)O)C(=O)N1CCC[C@H]1C(=O)N[C@@H](CO)C(=O)N[C@@H](CO)C(=O)N[C@H](C(=O)N[C@@H](CC(N)=O)C(=O)N[C@H](C(=O)NCC(=O)N[C@@H](Cc1c[nH]cn1)C(=O)N[C@@H](CC(N)=O)C(=O)N[C@H](C(=O)N[C@@H](Cc1ccc(O)cc1)C(N)=O)[C@@H](C)O)C(C)C)[C@@H](C)O
On to B4, for which, in experiment [1], the “Ratio hCT/hAmylin binding” value was 59.4. Moreover, in experiment [2], the IC50 was 22.7 nM.
